B1: Rv0258c-40bp (dsDNA)
DNA 1: CATGGTGTCAGGATCACCCCGCTGTGATCAAAGATCAAGC
DNA 2: GCTTGATCTTTGATCACAGCGGGGTGATCCTGACACCATG
B2: Rv0010c-40bp (dsDNA)
DNA 1: CAGTGGGGATGAATCACATGCGTGTGATTGAGTGACCAAA
DNA 2: TTTGGTCACTCAATCACACGCATGTGATTCATCCCCACTG
B3: Rv2044c-40bp (dsDNA)
DNA 1: TGTCGCTCACTACATCACCGGCGTGATCTATCCCGCCGGT
DNA 2: ACCGGCGGGATAGATCACGCCGGTGATGTAGTGAGCGACA
B4: Rv0086-40bp (dsDNA)
DNA 1: CGCCATCGCCGATATCACCGGCGTGATGCGACGGTCGCGG
DNA 2: CCGCGACCGTCGCATCACGCCGGTGATATCGGCGATGGCG
B5: Rv3396c-40bp (dsDNA)
DNA 1: TGTGGGGTGTGCATCACCTCCGGGTGATACTGCACCCCGG
DNA 2: CCGGGGTGCAGTATCACCCGGAGGTGATGCACACCCCACA
B6: Rv2434c-40bp (dsDNA)
DNA 1: GGTTCCCATGGGTATCACCTTCGTGATCGCCGGCAGCGTG
DNA 2: CACGCTGCCGGCGATCACGAAGGTGATACCCATGGGAACC
B7: Rv1733c-40bp (dsDNA)
DNA 1: GTGTTGCTGTCGATCACCCCCTCGTGATCGATCACGGTCG
DNA 2: CGACCGTGATCGATCACGAGGGGGTGATCGACAGCAACAC

The target in one data set is T1, HigA2 (Mycobacterium tuberculosis H37Rv, UniProt O53467 1-101).
T1 sequence: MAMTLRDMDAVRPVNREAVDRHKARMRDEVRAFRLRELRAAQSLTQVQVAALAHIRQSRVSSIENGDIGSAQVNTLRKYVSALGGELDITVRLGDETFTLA
As to the kind of experiment: EMSA; essentially complete binding; 1 uM DNA; EMSA: 20 mM Tris-HCl, 150 mM NaCl, pH 8.0, 37 °C, 5 min, HigA2 1 uM (titrated in Fig 4); agarose or native PAGE. Pull-down: streptavidin beads, 4 °C, PBS washes. As to conditions: protein: recombinant; tags: C-terminal 6xHis; chain copies: 2; blunt. (In general: Mobility shift assays separate free from complexed probe on a gel.)
Turning to B1, the binding signal is around 5 µM.

Turning to B2, the binding signal was around 8 µM.

As for B3, the binding signal is around 5 µM.

For B4, the binding signal is around 20 µM.

Regarding B5, the binding signal is around 8 µM.

B6: the binding signal is around 20 µM.

Regarding B7, the binding signal is around 8 µM.

Another data set has as its target T2, HigA2 (Mycobacterium tuberculosis H37Rv) (UniProt O53467).
T2 sequence: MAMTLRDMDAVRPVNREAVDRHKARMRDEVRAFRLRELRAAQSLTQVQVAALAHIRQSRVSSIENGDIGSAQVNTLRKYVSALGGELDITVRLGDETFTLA
As to the kind of experiment: EMSA. As to conditions: EMSA: 20 mM Tris-HCl, 150 mM NaCl, pH 8.0, 37 °C, 5 min, HigA2 1 uM (titrated in Fig 4); agarose or native PAGE. Pull-down: streptavidin beads, 4 °C, PBS ….
Turning to “CGCTGCTCTTACCCGGAGGAATATCACCCTTGTGTGATATCGCGTATCGCGCTACTCTG (double strand) [seq6]”, the binding entry was “binds”.

Consider “GGCACAGGCTACTGTTTCAACGGCCCGGGTGCGCAGAGTCCGTCCTCGCCTGCCGGCATTTCCTCGACGGTAGCCCCGTCGCCCGCTGCTCTTACCCGGAGGAATATCACCCTTGTGTGATATCGCGTATCGCGCTACTCTGCGACTCTGTGGGGTGGACGGCGGATGTGGAGCGCATCTCCGCCTGGCTCAACGGCTTGGACCGAGAGACCTACGAATTGGTGTTCGCAGCTATCG (double strand) [seq4]”, for which the binding entry was “binds”.

Consider higB2 40 bp, for which the binding signal was found to be 5 µM.

Source of the values: paper PMC11205783, “HigA2 (Rv2021c) Is a Transcriptional Regulator with Multiple Regulatory Targets in Mycobacterium tuberculosis”.
